These results are taken from PMC12977500, “Mechanistic insights into SteAB regulation of cell wall hydrolase RipA in Mycobacterium tuberculosis” (mBio, 2026).

Data set [1] deals with the molecule itself. The data set is described as follows: SEC-SLS; SEC with triple detection (UV, refractometer, SLS 7° and 90°, viscometer), Superdex 75 Increase 10/300 GL, 25 mM Hepes pH 7.5, 150 mM NaCl, 20°C; sample 1–5 mg/mL.
The target in data set [2] is T1, MtSteB△TM (soluble M. tuberculosis SteB devoid of its TM domain, residues 38–314) (Mycobacterium tuberculosis, UniProt P9WJ83 38-314).
T1 construct: Homodimer in both crystal structures; also called MctB; Rv1698; not shown: His6, N-terminal, cleaved; SUMO, N-terminal, cleaved
The data set is described as follows: BLI; biotinylated MtRipACC immobilised on streptavidin biosensors; Octet-Red384, 25°C; 25 mM HEPES pH 7.5, 150 mM NaCl, 5% glycerol, 1 mg/mL BSA, 0.05% Tween 20; MtSteB 200–3.125 μM or MtRipACAT 80–1.25 μM; steady-state signal, one-site binding model; apparent Kd. As to conditions: both partners purified.

T1 sequence (P9WJ83 38-314): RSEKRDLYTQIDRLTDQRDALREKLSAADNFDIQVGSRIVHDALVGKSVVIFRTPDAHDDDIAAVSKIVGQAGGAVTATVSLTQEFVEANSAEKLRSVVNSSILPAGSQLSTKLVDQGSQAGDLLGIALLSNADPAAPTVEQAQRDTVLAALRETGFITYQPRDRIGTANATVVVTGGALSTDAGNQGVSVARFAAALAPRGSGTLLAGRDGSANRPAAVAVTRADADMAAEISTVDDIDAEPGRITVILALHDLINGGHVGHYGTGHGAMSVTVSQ

B1: MtSteA△TM (truncated soluble construct of M. tuberculosis SteA, residues 12–344) (domain or fragment)
chain: SRPGLIGIARVDRNIDRLLRRVCPGDIVVLDVLDLDRITADALVEAEIAAVVNASSSVSGRYPNLGPEVLVTNGVTLIDETGPEIFKKVKDGAKVRLYEGGVYAGDRRLIRGTERTDHDIADLMREAKSGLVAHLEAFAGNTIEFIRSESPLLIDGIGIPDVDVDLRRRHVVIVADEPSGPDDLKSLKPFIKEYQPVLVGVGTGADVLRKAGYRPQLIVGDPDQISTEVLKCGAQVVLPADADGHAPGLERIQDLGVGAMTFPAAGSATDLALLLADHHGAALLVTAGHAANIETFFDRTRVQSNPSTFLTRLRVGEKLVDAKAVATLYRNHI
notes: Dimer in solution and in the crystal; also called Rv1697; not shown: His6, N-terminal, cleaved; SUMO, N-terminal, cleaved
Regarding B1, the “stoichiometry N” value in data set [1] amounted to 2.

B2: MtRipACC (coiled-coil domain of M. tuberculosis RipA, residues 40–240) (domain or fragment)
chain: DPQTDTIAALIADVAKANQRLQDLSDEVQAEQESVNKAMVDVETARDNAAAAEDDLEVSQRAVKDANAAIAAAQHRFDTFAAATYMNGPSVSYLSASSPDEIIATVTAAKTLSASSQAVMANLQRARTERVNTESAARLAKQKADKAAADAKASQDAAVAALTETRRKFDEQREEVQRLAAERDAAQARLQAARLVAWSSE
modifications: biotin (EZ-Link NHS-PEG4-Biotin, 20 molar excess) in the BLI assays only
notes: Biotinylated and immobilised on streptavidin sensors for BLI; not biotinylated in the crystal of the complex; also called RipA coiled-coil domain; CC domain of RipA; not shown: His6, N-terminal, cleaved; SUMO, N-terminal, cleaved
Take B2: in data set [2], the Kd was 42.6 ± 4.4 µM.
